Results from US20230080534A1 (SHANGHAI BIOTROY BIOTECHNIQUE, published 2023).
No end group written: not given here.

T1: human SEMG2 full-length protein (human, UniProt Q02383 24-582, limits assumed)
T1 construct: also called SEMG2 protein; semenogelin 2
T1 sequence: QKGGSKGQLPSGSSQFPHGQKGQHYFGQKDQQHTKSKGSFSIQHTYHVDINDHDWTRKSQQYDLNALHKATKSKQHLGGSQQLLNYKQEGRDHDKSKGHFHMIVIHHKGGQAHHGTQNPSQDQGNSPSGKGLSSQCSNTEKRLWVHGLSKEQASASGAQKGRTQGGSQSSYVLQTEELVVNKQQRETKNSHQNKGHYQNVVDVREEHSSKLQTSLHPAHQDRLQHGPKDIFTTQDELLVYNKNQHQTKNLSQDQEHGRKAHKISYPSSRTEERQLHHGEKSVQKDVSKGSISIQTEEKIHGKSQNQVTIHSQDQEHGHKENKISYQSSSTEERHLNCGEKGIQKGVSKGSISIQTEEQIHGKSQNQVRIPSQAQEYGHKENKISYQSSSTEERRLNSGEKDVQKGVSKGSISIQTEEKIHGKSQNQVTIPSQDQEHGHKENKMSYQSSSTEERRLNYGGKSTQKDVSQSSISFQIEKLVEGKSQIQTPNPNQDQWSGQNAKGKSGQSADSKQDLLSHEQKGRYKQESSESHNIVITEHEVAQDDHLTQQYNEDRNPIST

T2: BSA-conjugated human SEMG2 (497-509) polypeptide (human, also: coupled to BSA, site not given here)
T2 peptide: QIEKLVEGKSQIQ

B1: MM15 (antibody, IgG2a, V domains shown)
VH: QVQLKESGPGLVAPSQSLSITCTVSGFSLTRYGVSWVRQTPGKGLEWLGIIWGDGSTNYHSALISRLSISKDNSKSQVFLKLNSLQTDDTATYYCAKQERFSDGYYDGFAYWGQGTLVTVSA
VL: QIVLTQSPAIMSASPGEKVTITCSASSSVSYMHWFQQKPGTSPKLWIYSTSNLASGVPARFSGSGSGTSYSLTISRMEAEDAATYYCQQRSSYPFTFGSGTKLEIKR
B2: 67-3-67-3 (antibody, V domains shown)
VH: QVQLLESGGGVVQPGRSLRLSCAASGFTFSSYAMHWVRQASGKGLEWVAVISYDGSNKYYADSVKGRFTISRDNSKNTLYLQMNSLRAEDTAVYYCARMDNHGSPDYWGQGTLVTVSS
VL: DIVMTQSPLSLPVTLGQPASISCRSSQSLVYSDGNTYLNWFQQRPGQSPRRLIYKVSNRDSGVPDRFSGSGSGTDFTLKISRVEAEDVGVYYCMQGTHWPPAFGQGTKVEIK
B3: 67-3-67-4 (antibody, V domains shown)
VH: QVQLLESGGGVVQPGRSLRLSCAASGFTFSSYAMHWVRQASGKGLEWVAVISYDGSNKYYADSVKGRFTISRDNSKNTLYLQMNSLRAEDTAVYYCARMDNHGSPDYWGQGTLVTVSS
VL: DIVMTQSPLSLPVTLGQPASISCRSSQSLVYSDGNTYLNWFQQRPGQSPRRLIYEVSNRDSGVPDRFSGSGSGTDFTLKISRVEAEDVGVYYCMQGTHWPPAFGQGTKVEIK
B4: 67-9-67-3 (antibody, V domains shown)
VH: QVQLLESGGGVVQPGRSLRLSCAASGFTFSSYAMHWVRQASGKGLEWVAVISYDGSNKYYADSVKGRFTISRDNSKNTLYLQMNSLRAEDTAVYYCARMDSGGSPDYWGQGTLVTVSS
VL: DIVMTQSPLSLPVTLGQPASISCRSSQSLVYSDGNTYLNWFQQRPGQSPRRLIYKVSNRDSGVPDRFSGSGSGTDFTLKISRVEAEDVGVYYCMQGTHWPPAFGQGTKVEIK
B5: 67-3-67-5 (antibody, V domains shown)
VH: QVQLLESGGGVVQPGRSLRLSCAASGFTFSSYAMHWVRQASGKGLEWVAVISYDGSNKYYADSVKGRFTISRDNSKNTLYLQMNSLRAEDTAVYYCARMDNHGSPDYWGQGTLVTVSS
VL: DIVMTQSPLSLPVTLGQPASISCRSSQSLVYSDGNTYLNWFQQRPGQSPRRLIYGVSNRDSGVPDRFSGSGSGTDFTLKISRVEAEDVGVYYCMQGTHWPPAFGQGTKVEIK

Tests used:
[1] = biological target: T1, human SEMG2 full-length protein; assay: ELISA, plate coated with SEMG2 protein, anti-mouse secondary antibody; the EC50 table prints no unit, the axis is log (antibody concentration, nM)
[2] = biological target: T2, BSA-conjugated human SEMG2 (497-509) …; assay: ELISA (FIG. 21B-D)
[3] = biological target: T1, human SEMG2 full-length protein; assay: ELISA (FIG. 21B-D)
[4] = biological target: T1, human SEMG2 full-length protein; assay: ELISA on SEMG2; the EC50 table prints no unit, the axis is log (antibody concentration, nM)

| Binder | EC50 [1] | fold higher affinity than the parent antibody (H88-67) [2] | fold higher affinity than the parent antibody (H88-67) [3] | EC50 [4] |
| --- | --- | --- | --- | --- |
| B1 | 0.444 nM | – | – | – |
| B2 | – | > 10 fold | > 10 fold | 0.614 nM |
| B3 | – | > 10 fold | > 10 fold | 0.537 nM |
| B4 | – | > 10 fold | > 10 fold | 0.272 nM |
| B5 | – | > 10 fold | > 10 fold | 0.68 nM |
